{"source": "patent US10772928B2", "about": "“Modulation and detection of a neuronal alternative splicing regulatory network for treatment and diagnosis of neurological disorders” (The Governing Council of the University of Toronto, priority 2014, dated 2020)", "molecules": {"B1": {"name": "Poldip3 (protein, UniProt Q8BG81 2-420, looked up)", "Polymerase delta-interacting …": "ADLSLDELIRKRGTAAKGRLSVRPGIGGVRSRVGIQHSLVNQPARTATFQQRFDARQKIGLSDARLKLGVKDAREKLLQKDARFRIKGKVQDAREMLNSRKQQGTVPQKPRQVADAREKISLKRRSPAAFTSPPIGTVTPALKLTKTIQVPQQKAMVPLHAHPAGMRINVVNNHQAKQNLYDLDEDDDIVVPVPPKQMKFAATGSLVHHMTGLSSSKLSMSKALPLTKVVQNDAYTAPVLPSSVRTKALTSMSRTLVNKEEPPKELPPAEPVLSPLEGTKMTVNNLHPRVTEEDIVELFCVCGALKRARLVHPGVAEVVFVKKDDAITAYKKYNNRCLDGQPMKCNLHMNGNVITSDQPILLRLSDSPSVKKESELPRRGNPASSNPPAEVDPDTVLRALFKSSGASVTTQPTEFKIKL"}, "B2": {"name": "Cwc22 (protein, UniProt Q8C5N3 1-908, looked up)", "Pre-mRNA-splicing factor …": "MKSSVAHMKSSGHNRRETHSSYRRSSSPEDRYTEQERSPRDRGYSDYSRSDYERSRRGYSYDDSMESRSRDREKRRERERDADHRKRSRKSPSPDRSPARGGGQSSPQEEPTWKKKKDELDPLLTRTGGAYIPPAKLRMMQEQITDKSSLAYQRMSWEALKKSINGLINKVNISNISIIIQELLQENIVRGRGLLSRSVLQAQSASPIFTHVYAALVAIINSKFPQIGELILKRLILNFRKGYRRNDKQLCLTASKFVAHLINQNVAHEVLCLEMLTLLLERPTDDSVEVAIGFLKECGLKLTQVSPRGINAIFERLRNILHESEIDKRVQYMIEVMFAVRKDGFKDHPVILEGLDLVEEDDQFTHMLPLEDDYNPEDVLNVFKMDPNFMENEEKYKAIKKEILDEGDSDSNTDQGAGSSEDEEEEDEEEEGEDEEGGQKVTIHDKTEINLVSFRRTIYLAIQSSLDFEECAHKLLKMEFAESQTKELCNMILDCCAQQRTYEKFFGLLAGRFCMLKKEYMESFESIFKEQYDTIHRLETNKLRNVAKMFAHLLYTDSLPWSVLECIKLSEETTTSSSRIFVKIFFQELCEYMGLPKLNARLKDETLQPFFEGLLPRDNPRNTRFAINFFTSIGLGGLTDELREHLKNTPKVIVAQKPEAEQKKPALTSSSSESSSASDSSDSESDSSESSSESSSDASDSSSSSSTQSSTSGITAHSAKGTRKKRQGKARGEEVDKLARGHQALERRREGGREDQRHQEGRTERARSERRRAQNSRDADWRDPLAKHIDDRSHENSHSRVGNGREQGSHREPEDRHGEPKKRRERRDSFSENEKQRSRNQDSDNVRRKDRSKSRERSRRHSGHKGDDARCQNSAERRWEKPGRRPEQSRESKRSQDRRREKSPTTQK"}, "B3": {"name": "Ccdc55 (protein, UniProt Q5NCR9 1-542, looked up)", "Nuclear speckle splicing …": "MAIPGRQYGLILPKKTQPLHRVLQKPSVFGSDSDDDETSVSESLQREAAKKQAMKQTKLEIQKALAEDSTVYEYDSVYDEMQKKKEENNPKLLPGKDRKPKYIHNLLKAVEIRKKEQEKRMEKKIQREREMENGEFDDKEAFVTSAYKKKLEERAEEEEREKRAAALEAHLDVTKQKDLSGFYRHLLNQAVGEEAAPKSSFREARTVIKEEKLRGYPDETNSESRPPQQSCVLQRGAQEAEENPDADREFDDESSEDGEKRDHKVKSRGEDTGASMKHPKHHKNRAHSRSSSEERGLGTKHHSRGSQSRGHEHQDRQSRDQESCHKDRSHREEKSSHRHREASHKDHYWKKHEQEDKLKGREQEERQDREGKREKYSSREQERDRQRNDHDRYSEKEKKRKEKEEHTKARRERCEDSGKHREREKPEGHGQSSERHRDRRESSPRSRPKDDLDQERSSKARNTEKDKGEQGKPSHSETSLATKHRLAEERPEKGSEQERPPEAVSKFAKRSNEETVMSARDRYLARQMARINAKTYIEKEDD"}, "B4": {"name": "Ddx47 (protein, UniProt Q9CWX9 2-455, looked up)", "Probable ATP-dependent RNA …": "AADEEPDSPSGALQTAAEEEETKTFKDLGVTDVLCEACDQLGWAKPTKIQIEAIPLALQGRDIIGLAETGSGKTGAFALPILNALLETPQRLFALVLTPTRELAFQISEQFEALGSSIGVQCAVIVGGIDSMSQSLALAKKPHIVIATPGRLIDHLENTKGFNLRALKYLVMDEADRILNMDFETEVDKILKVIPRDRKTFLFSATMTKKVQKLQRAALKNPVKCAVSSKYQTVEKLQQYYLFIPSKFKDTYLVYILNELAGNSFMIFCSTCNNTQRTALLLRNLGFTAIPLHGQMSQSKRLGSLNKFKAKARSILLATDVASRGLDIPHVDVVVNFDIPTHSKDYIHRVGRTARAGRSGKAITFVTQYDVELFQRIEHLIGKKLPVFPTQDEEVMMLTERVNEAQRFARMELREHGEKKKRKREDAGDDDDKEGAIGVRNKVAGGKMKKRKGR"}, "B5": {"name": "Necap1 (protein, UniProt Q9CR95 1-275, looked up)", "Adaptin ear-binding …": "MAAELEYESVLCVKPDVSVYRIPPRASNRGYRASDWKLDQPDWTGRLRITSKGKIAYIKLEDKVSGELFAQAPVEQYPGIAVETVTDSSRYFVIRIQDGTGRSAFIGIGFTDRGDAFDFNVSLQDHFKWVKQETEISKESQEMDNRPKLDLGFKEGQTIKLSIGNITAKKGGASKPRASGTGGLSLLPPPPGGKVTIPPPSSSVAISNHVTPPPIPKSNHGGNDSDILLDLDSPAPVSTSAPAPVSTSNDLWGDFSTASSSVPNQAPQPSNWVQF"}, "B6": {"name": "Cdc37 (protein, UniProt Q61081 1-379, looked up)", "Hsp90 co-chaperone Cdc37": "MVDYSVWDHIEVSDDEDETHPNIDTASLFRWRHQARVERMEQFQKEKEELDRGCRECKRKVAECQRKLKELEVAESDGQVELERLRAEAQQLRKEERSWEQKLEDMRKKEKNMPWNVDTLSKDGFSKSMVNTKPEKAEEDSEEAREQKHKTFVEKYEKQIKHFGMLHRWDDSQKYLSDNVHLVCEETANYLVIWCIDLEVEEKCALMEQVAHQTMVMQFILELAKSLKVDPRACFRQFFTKIKTADHQYMEGFKYELEAFKERVRGRAKLRIEKAMKEYEEEERKKRLGPGGLDPVEVYESLPEELQKCFDVKDVQMLQDAISKMDPTDAKYHMQRCIDSGLWVPNSKSGEAKEGEEAGPGDPLLEAVPKAGNEKDVSA"}, "B7": {"name": "Csnk2a2 (protein, UniProt O54833 1-350, looked up)", "Casein kinase II subunit …": "MPGPAAGSRARVYAEVNSLRSREYWDYEAHVPSWGNQDDYQLVRKLGRGKYSEVFEAINITNNERVVVKILKPVKKKKIKREVKILENLRGGTNIIKLIDTVKDPVSKTPALVFEYINNTDFKQLYQILTDFDIRFYMYELLKALDYCHSKGIMHRDVKPHNVMIDHQQKKLRLIDWGLAEFYHPAQEYNVRVASRYFKGPELLVDYQMYDYSLDMWSLGCMLASMIFRKEPFFHGQDNYDQLVRIAKVLGTDELYGYLKKYHIDLDPHFNDILGQHSRKRWENFIHSENRHLVSPEALDLLDKLLRYDHQQRLTAKEAMEHPYFYPVVKEQSQPCAENTVLSSGLTAAR"}}, "biological_target": "T1, nSR100 (Mus musculus, UniProt Q8BKA3)", "T1 construct": "host or cells: mouse N2A cells", "T1 sequence (Q8BKA3 1-608)": "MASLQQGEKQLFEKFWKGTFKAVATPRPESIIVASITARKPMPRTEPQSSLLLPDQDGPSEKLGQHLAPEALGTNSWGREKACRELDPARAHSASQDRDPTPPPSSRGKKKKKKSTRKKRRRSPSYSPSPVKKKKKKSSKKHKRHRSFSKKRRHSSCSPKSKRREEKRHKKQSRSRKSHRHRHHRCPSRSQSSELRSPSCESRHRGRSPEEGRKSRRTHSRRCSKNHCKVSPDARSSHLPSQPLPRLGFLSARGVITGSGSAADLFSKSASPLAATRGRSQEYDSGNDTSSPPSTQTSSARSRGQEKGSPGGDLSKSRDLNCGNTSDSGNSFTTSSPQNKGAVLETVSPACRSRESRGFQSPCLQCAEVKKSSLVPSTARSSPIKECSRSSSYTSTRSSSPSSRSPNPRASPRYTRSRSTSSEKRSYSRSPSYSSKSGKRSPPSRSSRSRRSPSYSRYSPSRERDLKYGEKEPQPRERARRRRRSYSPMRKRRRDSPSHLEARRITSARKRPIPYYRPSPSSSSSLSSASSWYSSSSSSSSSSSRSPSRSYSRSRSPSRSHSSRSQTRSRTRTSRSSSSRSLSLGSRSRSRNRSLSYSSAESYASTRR", "experiment": "AP-MS nSR100 interaction partners from mouse N2A cells (Table 5)", "type": "binding", "details": "for AvgP (average of the SAINT scores) / MaxP (maximal SAINT score): bait Srrm4; for FoldChange between the prey Avg spectra of the bait and control purifications: bait Srrm4, 0.1 added to prevent division by 0; for AvgSpec (average number of spectra per replicate): bait Srrm4, 2 replicates; for Spectra (number of spectra for the prey in the purification of the bait): AP-MS; for SpecSum: bait Srrm4, sum of spectra over 2 replicates", "key": {"[1]": {"details": "bait Srrm4, biological replicate 1 (first number of the cell)"}, "[2]": {"details": "bait Srrm4, biological replicate 2 (second number of the cell)"}}, "source_text": "By applying affinity purification coupled to mass-spectrometry (AP-MS), several interaction nSR100 partner proteins were detected that provide insight into mechanisms of post-translational regulation of nSR100 levels.", "data": [{"molecule": "B1", "values": [{"measurement": "AvgP (average of the SAINT scores)", "result": 1}, {"measurement": "MaxP (maximal SAINT score)", "result": 1}, {"measurement": "FoldChange between the prey Avg spectra of the bait and control purifications", "result": 65}, {"measurement": "AvgSpec (average number of spectra per replicate)", "result": 6.5}, {"measurement": "Spectra (number of spectra for the prey in the purification of the bait)", "setting": "[1]", "result": 7}, {"measurement": "Spectra (number of spectra for the prey in the purification of the bait)", "setting": "[2]", "result": 6}, {"measurement": "SpecSum", "result": 13}]}, {"molecule": "B2", "values": [{"measurement": "AvgP (average of the SAINT scores)", "result": 1}, {"measurement": "MaxP (maximal SAINT score)", "result": 1}, {"measurement": "FoldChange between the prey Avg spectra of the bait and control purifications", "result": 385}, {"measurement": "AvgSpec (average number of spectra per replicate)", "result": 38.5}, {"measurement": "Spectra (number of spectra for the prey in the purification of the bait)", "setting": "[1]", "result": 37}, {"measurement": "Spectra (number of spectra for the prey in the purification of the bait)", "setting": "[2]", "result": 40}, {"measurement": "SpecSum", "result": 77}]}, {"molecule": "B3", "values": [{"measurement": "AvgP (average of the SAINT scores)", "result": 1}, {"measurement": "MaxP (maximal SAINT score)", "result": 1}, {"measurement": "FoldChange between the prey Avg spectra of the bait and control purifications", "result": 75}, {"measurement": "AvgSpec (average number of spectra per replicate)", "result": 7.5}, {"measurement": "Spectra (number of spectra for the prey in the purification of the bait)", "setting": "[1]", "result": 5}, {"measurement": "Spectra (number of spectra for the prey in the purification of the bait)", "setting": "[2]", "result": 10}, {"measurement": "SpecSum", "result": 15}]}, {"molecule": "B4", "values": [{"measurement": "AvgP (average of the SAINT scores)", "result": 1}, {"measurement": "MaxP (maximal SAINT score)", "result": 1}, {"measurement": "FoldChange between the prey Avg spectra of the bait and control purifications", "result": 35}, {"measurement": "AvgSpec (average number of spectra per replicate)", "result": 3.5}, {"measurement": "Spectra (number of spectra for the prey in the purification of the bait)", "setting": "[1]", "result": 3}, {"measurement": "Spectra (number of spectra for the prey in the purification of the bait)", "setting": "[2]", "result": 4}, {"measurement": "SpecSum", "result": 7}]}, {"molecule": "B5", "values": [{"measurement": "AvgP (average of the SAINT scores)", "result": 1}, {"measurement": "MaxP (maximal SAINT score)", "result": 1}, {"measurement": "FoldChange between the prey Avg spectra of the bait and control purifications", "result": 125}, {"measurement": "AvgSpec (average number of spectra per replicate)", "result": 12.5}, {"measurement": "Spectra (number of spectra for the prey in the purification of the bait)", "setting": "[1]", "result": 12}, {"measurement": "Spectra (number of spectra for the prey in the purification of the bait)", "setting": "[2]", "result": 13}, {"measurement": "SpecSum", "result": 25}]}, {"molecule": "B6", "values": [{"measurement": "AvgP (average of the SAINT scores)", "result": 1}, {"measurement": "MaxP (maximal SAINT score)", "result": 1}, {"measurement": "FoldChange between the prey Avg spectra of the bait and control purifications", "result": 4.61}, {"measurement": "AvgSpec (average number of spectra per replicate)", "result": 53}, {"measurement": "Spectra (number of spectra for the prey in the purification of the bait)", "setting": "[1]", "result": 58}, {"measurement": "Spectra (number of spectra for the prey in the purification of the bait)", "setting": "[2]", "result": 48}, {"measurement": "SpecSum", "result": 106}]}, {"molecule": "B7", "values": [{"measurement": "AvgP (average of the SAINT scores)", "result": 1}, {"measurement": "MaxP (maximal SAINT score)", "result": 1}, {"measurement": "FoldChange between the prey Avg spectra of the bait and control purifications", "result": 10}, {"measurement": "AvgSpec (average number of spectra per replicate)", "result": 20}, {"measurement": "Spectra (number of spectra for the prey in the purification of the bait)", "setting": "[1]", "result": 16}, {"measurement": "Spectra (number of spectra for the prey in the purification of the bait)", "setting": "[2]", "result": 24}, {"measurement": "SpecSum", "result": 40}]}]}
